From the nanobody polyreactivity screen of Harvey et al. (2022)

Assay: yeast display, Sf9 membrane polyspecificity reagent, FACS + sequencing; frameworks hold sequencing errors
How it was run: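 Using colony PCR, genes from sorted yeast display clones were amplified, then sequenced on MiSeq at 2 × 250 and filtered by CDR length. The clones had been stained with 10% biotinylated, detergent-solubilized Sf9 membrane reagent for 1 hour at 4 °C and sorted by FACS into low and high (top ~1%) gates on anti-HA and streptavidin fluorescence. Polyreactivity labels come from the gate of origin.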

Sequence	polyreactivity (PSR sort gate)
QVQLVESGGGLVQAGGSLRLSCAASGAIFDWYAMGGDRPAPGKERELVADITWSGDSTYYADSVKGRFTISRDHAKNTVYLKMNSLKPEDTAVFYCAADIWFYTYYEYDYWGQGTQVTVSS	high polyreactivity
QVQLVESGGGLVQAGGSLRLSCAASGRTFAYNDRGWYRQATGKERELVAAISWSDGTTYYADSVKGRFTISRDNAKNTVYLQMYSLKPEDTAVYDCAAESYPAVVASYVSEFDYWGQGTQVPVSS	low polyreactivity
QVQLVESGGGLVQAGGSLRLSCAASGRIFGYYAMGWYRQAPGKERELVAAIRRSGGSTYADSVKGRFTISRDNAKNTVYLQMNSLKPEDTAVYYCAAWIYEYDYWGQGTQVTVSS	high polyreactivity
QVQLQESGGLVQAGGLRLSSAASGSVSYQEAMGWYRQAPGKERELVATISFGANTNYADSVKGRFTISRDNAKNTVYLQMNSLKPEDTAVYYCAAESLFDDYYGYWGQGTQVTVSS	low polyreactivity
QVQLVESGAGLVQAGGSLRLSCAASGSTFTLNAMGWYRQAPGKERELVADISWSSGRTYYADSVKGRFTISRDNAKNTVDLQMNSLNPEDTAVYYCATDDFWIVKFYAYYPEFDYWGQVTQVTVSS	low polyreactivity
QVQLVESGGGLVQAGGSLRISCAASGSTFAYNAMGWYIQAPGKERELVAVISKGGGRTYYADSVKGRFTISRDNAKNTVYLQINSLKPEDTAVYYCAARYIPVYTREREYNYWGQGTQVTVSS	high polyreactivity
QVQLVESGGGLVQAGGSLRLSCAASGINFVGYAMGWDRQAPGKERELVAAISTSSRTYYADSVKGRFTISRDNAKNTVYIQMNSLKPEDTAVYYCNARGTRWYYRHDYWGQGTQVTVSS	high polyreactivity
QVQLVESGGGLVQAGGRLRLSCAASGRIFQHNTMGWYRQAPGKEREFVAAIRRSGGSTYYADSVKGRFTISRDNAKNTVYLQMNSLRPEDTAVYYCAARDYPTGTRRWGGGDSWGQGTQVTVSS	low polyreactivity
QVQLVESGGGLVQAGGSLRLSCAASGSTFPWYVMGWYRQAPGKERELVAAISWSGGRTYYADSVKGRFTISRDNAKNTVYLQMNSLKPEDTAVYYCAADLSYWRGGHSRNYWGQGTQVTVSS	low polyreactivity
QVQLVESGGGLVQAGGSLRLSCAASGFIFYRYAMGWYRQAPGKERELVAAISYSGGSTYYADSVKGRFTISRDNAKNTVYLQMISLKPEDTAVYYCAAGSKYRYDYWGQGTQVTVSS	high polyreactivity
QVQLVESGGGLVQAGGSLRLSCAASGSTFLKYTMGWYRQAPGKDRELVAGITRSSGSTYYADSVKGRFTISRDNAKNTVYLHMNSLKPEDTAVYYCAATVYLYTDLAYYWYGYWGQGTQVTVAS	high polyreactivity
QVQLVESRGGLVQAGGSLRLSCADSGITFYVYTMGWNIKAPGKQRDLVASISGRGGSTYYAVSVKGRFTISRDNAKNTVYLQMNSLKPEDTAVYYCEAYRLRFWSMDYWGQGTQVTGSS	high polyreactivity
QVHLVESGGGLVQARGSLRLSCAASGRIFRYYVMGWYRQAPGIERELVAAITSGTSTNYADSVKGRFTISRDNAKNTVYLQMTSLKPEDTAVYYCAVRSPRGGRTRFNSNYWGQGTQVTVSS	high polyreactivity
QVPLVESGGGLVQAGGSLRLSCSASGIIFNAYTMGWYRQAPGKESELVAAITTAGSTHYADSVKGRFTISRDNAKNTVYLQMNSLKPEDTAVYYCNADTPVGKYAHLACYQDYDDWGQGTQVTVSS	low polyreactivity
QVQLVESGGGLVQAGGSLRLSCAASGSTLARYAMGWYRQAPGKERELVAAISWIGGSTYYADSVKGRFTISRDNAKNTVYLQMNSLKPEDTAVYFCAKDTYPWYIRNRYDYWGQGSQVTVSS	high polyreactivity
QVQLVESGGGLVQAGGSLRLSCAASGFIIVNNAMGWYRQAPGKERELVATISRGGSTNYADSVKGRFTISRDNAKNTVYLQMNSLKPEDTAVYYCNARRSVKVYGVDYWGQGTQVTVSS	high polyreactivity
QVHLVESGGGLVQAGGSLRLSCAASGSIIKRNAMGWYRQAPGKERELVATISSGDGSTRYADSVKGRFTISRDNAKNTVYLQMNSLKPEDSAVYYCAAASAAGYDYWGQGTQVTVSS	low polyreactivity
